Source: patent US20210403506A1 (XDCEXPLORER SHANGHAI, published 2021)
Square brackets hold non-standard residues; d marks the D form. Ends that are not written are not given here. * marks the point of attachment. Pro(diF) = difluoro-proline, as coded in the source; PEG8 = NCCOCCOCCOCCOCCOCCOCCOCCOCCC(=O)O; dOic = O=C(O)[C@H]1C[C@H]2CCCC[C@H]2N1; 1Nal = N[C@@H](Cc1cccc2ccccc12)C(=O)O; 2Nal = N[C@@H](Cc1ccc2ccccc2c1)C(=O)O; dNMeY = CN[C@H](Cc1ccc(O)cc1)C(=O)O; Hydrocinnamoyl = O=C(CCc1ccccc1)*; NMehLeu = CN[C@@H](CCC(C)C)C(=O)O; Palmitoyl = CCCCCCCCCCCCCCCC(=O)*; NMeF = CN[C@@H](Cc1ccccc1)C(=O)O; Myristoyl = CCCCCCCCCCCCCC(=O)*; Tic = O=C(O)[C@@H]1Cc2ccccc2CN1; dTic = O=C(O)[C@H]1Cc2ccccc2CN1; NMeL = CN[C@@H](CC(C)C)C(=O)O; Lauroyl = CCCCCCCCCCCC(=O)*; NHoSer = not defined here; NMeS = CN[C@@H](CO)C(=O)O; hSer = N[C@@H](CCO)C(=O)O; βAla = NCCC(=O)O

Target: T1, human Chemokine like receptor 1 (human, UniProt Q99788 1-373)
T1 sequence (looked up): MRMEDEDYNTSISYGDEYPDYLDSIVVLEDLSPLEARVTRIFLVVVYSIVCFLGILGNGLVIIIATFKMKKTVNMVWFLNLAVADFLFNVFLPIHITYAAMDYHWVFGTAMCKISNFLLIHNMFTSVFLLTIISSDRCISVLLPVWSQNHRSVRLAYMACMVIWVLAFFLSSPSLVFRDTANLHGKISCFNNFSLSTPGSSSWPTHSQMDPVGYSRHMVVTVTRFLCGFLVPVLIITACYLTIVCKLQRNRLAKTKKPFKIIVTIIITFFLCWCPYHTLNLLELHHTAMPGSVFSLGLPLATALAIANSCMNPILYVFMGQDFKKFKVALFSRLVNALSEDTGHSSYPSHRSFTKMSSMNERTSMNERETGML
Assay: cell-based or functional assay

{Myristoyl-PEG8}-[βAla][βAla][dNMeY]F[NMeL]P[dS]Q[2Nal][dA][Tic][NMeS] [YW-180]
EC50 (µM), activation of Tango CMKLR1-bla U2OS cells: 0.0014 µM

[dY]F[NMeL]P[dHoSer]QF[dA][Tic]S-OH [YW-175]
EC50 (µM), activation of Tango CMKLR1-bla U2OS cells: 0.091 µM

B1: YW-172 (peptide)
peptide: [dY]F[NMeL]P[dS]QF[dA][Tic][NHoSer]-OH
modifications: reading uncertain; also: printed as (D-Tyr)-Phe-(NMe-Leu)-Pro-(D-Ser)-Gln-Phe-(D-Ala)-Tic-(NHoSer)
EC50 (µM), activation of Tango CMKLR1-bla U2OS cells: 0.0058 µM

B2: YW-168 (peptide)
peptide: [dNMeY]F[NMeL]P[dS]Q[1Nal][dA][Tic]S-OH
modifications: N-terminus assumed
SMILES: CN[C@H](Cc1ccc(O)cc1)C(=O)N[C@@H](Cc1ccccc1)C(=O)N(C)[C@@H](CC(C)C)C(=O)N1CCC[C@H]1C(=O)N[C@H](CO)C(=O)N[C@@H](CCC(N)=O)C(=O)N[C@@H](Cc1cccc2ccccc12)C(=O)N[C@H](C)C(=O)N1Cc2ccccc2C[C@H]1C(=O)N[C@@H](CO)C(=O)O
EC50 (µM), activation of Tango CMKLR1-bla U2OS cells: 0.0012 µM

[dY]F[NMeL]P[dS]QF[dA][Tic][NMeHoSer]-OH [YW-177]
EC50 (µM), activation of Tango CMKLR1-bla U2OS cells: 0.025 µM

[dY]F[NMeL]P[dS]QF[dA][dOic]S-OH [YW-176]
EC50 (µM), activation of Tango CMKLR1-bla U2OS cells: 0.0038 µM

B3: YW-166 (peptide)
peptide: [dY]F[NMeL]P[dS]QF[dA][Tic][NMeS]-OH
modifications: N-terminus assumed
SMILES: CC(C)C[C@@H](C(=O)N1CCC[C@H]1C(=O)N[C@H](CO)C(=O)N[C@@H](CCC(N)=O)C(=O)N[C@@H](Cc1ccccc1)C(=O)N[C@H](C)C(=O)N1Cc2ccccc2C[C@H]1C(=O)N(C)[C@@H](CO)C(=O)O)N(C)C(=O)[C@H](Cc1ccccc1)NC(=O)[C@H](N)Cc1ccc(O)cc1
EC50 (µM), activation of Tango CMKLR1-bla U2OS cells: 0.005 µM

B4: YW-100 (peptide)
peptide: [dY]F[NMeF]P[dS]QF[dA][Tic]S-OH
modifications: N-terminus assumed
SMILES: C[C@@H](NC(=O)[C@H](Cc1ccccc1)NC(=O)[C@H](CCC(N)=O)NC(=O)[C@@H](CO)NC(=O)[C@@H]1CCCN1C(=O)[C@H](Cc1ccccc1)N(C)C(=O)[C@H](Cc1ccccc1)NC(=O)[C@H](N)Cc1ccc(O)cc1)C(=O)N1Cc2ccccc2C[C@H]1C(=O)N[C@@H](CO)C(=O)O
EC50 (µM), activation of Tango CMKLR1-bla U2OS cells: 0.042 µM

{Palmitoyl-PEG8}-[βAla][βAla][dNMeY]F[NMeL]P[dS]Q[2Nal][dA][Tic][NMeS] [YW-179]
EC50 (µM), activation of Tango CMKLR1-bla U2OS cells: 0.0021 µM

B5: YW-165 (peptide)
peptide: [dY]F[NMeL]P[dS]Q[1Nal][dA][Tic]S-OH
modifications: N-terminus assumed
SMILES: CC(C)C[C@@H](C(=O)N1CCC[C@H]1C(=O)N[C@H](CO)C(=O)N[C@@H](CCC(N)=O)C(=O)N[C@@H](Cc1cccc2ccccc12)C(=O)N[C@H](C)C(=O)N1Cc2ccccc2C[C@H]1C(=O)N[C@@H](CO)C(=O)O)N(C)C(=O)[C@H](Cc1ccccc1)NC(=O)[C@H](N)Cc1ccc(O)cc1
EC50 (µM), activation of Tango CMKLR1-bla U2OS cells: 0.0015 µM

[dY]F[NMeL][Pro(diF)][dS]QF[dA][Tic]S-OH [YW-174]
EC50 (µM), activation of Tango CMKLR1-bla U2OS cells: 0.0012 µM

Hydrocinnamoyl-[dY]F[NPrL]P[dS]QF[dA][Tic]S [YW-186]
EC50 (µM), activation of Tango CMKLR1-bla U2OS cells: 0.011 µM

Hydrocinnamoyl-[dY]F[NEtL]P[dS]QF[dA][Tic]S [YW-185]
EC50 (µM), activation of Tango CMKLR1-bla U2OS cells: 0.0059 µM

B6: YW-101 (peptide)
peptide: [dY]F[NMehLeu]P[dS]QF[dA][Tic]S-OH
modifications: N-terminus assumed
SMILES: CC(C)CC[C@@H](C(=O)N1CCC[C@H]1C(=O)N[C@H](CO)C(=O)N[C@@H](CCC(N)=O)C(=O)N[C@@H](Cc1ccccc1)C(=O)N[C@H](C)C(=O)N1Cc2ccccc2C[C@H]1C(=O)N[C@@H](CO)C(=O)O)N(C)C(=O)[C@H](Cc1ccccc1)NC(=O)[C@H](N)Cc1ccc(O)cc1
EC50 (µM), activation of Tango CMKLR1-bla U2OS cells: 0.0029 µM

B7: YW-171 (peptide)
peptide: [dY]F[NMeL]P[dS]QF[dA][Tic][hSer]-OH
modifications: N-terminus assumed
SMILES: CC(C)C[C@@H](C(=O)N1CCC[C@H]1C(=O)N[C@H](CO)C(=O)N[C@@H](CCC(N)=O)C(=O)N[C@@H](Cc1ccccc1)C(=O)N[C@H](C)C(=O)N1Cc2ccccc2C[C@H]1C(=O)N[C@@H](CCO)C(=O)O)N(C)C(=O)[C@H](Cc1ccccc1)NC(=O)[C@H](N)Cc1ccc(O)cc1
EC50 (µM), activation of Tango CMKLR1-bla U2OS cells: 0.029 µM

[dY]F[NPrL]P[dS]QF[dA][Tic]S [YW-184]
EC50 (µM), activation of Tango CMKLR1-bla U2OS cells: 0.016 µM

[dY]F[NMeL]P[dS]QF[dA][dTic][NMeS] [YW-182]
EC50 (µM), activation of Tango CMKLR1-bla U2OS cells: 0.041 µM

{Lauroyl-PEG8}-[βAla][βAla][dNMeY]F[NMeL]P[dS]Q[2Nal][dA][Tic][NMeS] [YW-181]
EC50 (µM), activation of Tango CMKLR1-bla U2OS cells: 0.0022 µM

{Palmitoyl-PEG8}-GG[dNMeY]F[NMeL]P[dS]Q[2Nal][dA][Tic][NMeS] [YW-178]
EC50 (µM), activation of Tango CMKLR1-bla U2OS cells: 0.0021 µM

B8: YW-164 (peptide)
peptide: [dY]F[NMeL]P[dS]Q[2Nal][dA][Tic]S-OH
modifications: N-terminus assumed
SMILES: CC(C)C[C@@H](C(=O)N1CCC[C@H]1C(=O)N[C@H](CO)C(=O)N[C@@H](CCC(N)=O)C(=O)N[C@@H](Cc1ccc2ccccc2c1)C(=O)N[C@H](C)C(=O)N1Cc2ccccc2C[C@H]1C(=O)N[C@@H](CO)C(=O)O)N(C)C(=O)[C@H](Cc1ccccc1)NC(=O)[C@H](N)Cc1ccc(O)cc1
EC50 (µM), activation of Tango CMKLR1-bla U2OS cells: 0.0011 µM

B9: YW-167 (peptide)
peptide: [dNMeY]F[NMeL]P[dS]Q[2Nal][dA][Tic]S-OH
modifications: N-terminus assumed
SMILES: CN[C@H](Cc1ccc(O)cc1)C(=O)N[C@@H](Cc1ccccc1)C(=O)N(C)[C@@H](CC(C)C)C(=O)N1CCC[C@H]1C(=O)N[C@H](CO)C(=O)N[C@@H](CCC(N)=O)C(=O)N[C@@H](Cc1ccc2ccccc2c1)C(=O)N[C@H](C)C(=O)N1Cc2ccccc2C[C@H]1C(=O)N[C@@H](CO)C(=O)O
EC50 (µM), activation of Tango CMKLR1-bla U2OS cells: 0.0008 µM

[dY]F[NEtL]P[dS]QF[dA][Tic]S [YW-183]
EC50 (µM), activation of Tango CMKLR1-bla U2OS cells: 0.0092 µM
